The nature of the series: yeast display, Sf9 membrane polyspecificity reagent, FACS + sequencing; frameworks hold sequencing errors. In outline:
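In a synthetic yeast display library (Saccharomyces cerevisiae BJ5465), nanobody expression was induced with galactose for 36–48 hours. FACS gates were set low and high (top ~1%) using anti-HA fluorescence for expression and streptavidin fluorescence for binding of the Sf9 membrane reagent. Each polyreactivity label is drawn from the gate of origin.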
Turning to “QDQLVESGGGLVQAGGSLRLSCAASGSIFGVYAMGWNRQAPGKERELVAAITRGGRTYYADSVKGRFTISRDNAKNTVYLQMNCLKPEDTAVYYCAALPLRERYGYWGQGTQVTVSS”, the “polyreactivity (PSR sort gate)” value was “high polyreactivity”.

As to “QVQLVESGGGLVQAGGSLRLSCAASGRIFSYYAMGWYRQAPGTERELVAAISWSGSRTNYADSVKGRFTISRDNAKNTVYLQMKSLKPEDTAVYYCAAEDWSTQGSATVQYDYWGQGTEVTVSS”, the “polyreactivity (PSR sort gate)” value is reported as “high polyreactivity”.

In the case of “QVQLVESGGGLVQAGGSLRLSCAASGSTFGRNAMGWYRQAPGKERELVAAISWRSTRTYYADSVKGRFTISRDNAKNTVYLQMNSLKPEDTAVYYCAAAWRIWWYHRGEFDYWGQGTQVTVSS”, the “polyreactivity (PSR sort gate)” value is reported as “high polyreactivity”.

Regarding “QLQLVESGGGLVQAGGSLRLSCAPSGYTFYLYAMGWYRQAPGKARELDAAISNRGGSTYYADSVKGRFTISRDNAKNTVYLQMKSLKPEDTAFYYCAATVGKAGGRYYDRRYYWGQGTQVTVSS”, the “polyreactivity (PSR sort gate)” value is recorded as “high polyreactivity”.

Regarding “QVQLVESGGGLVQAGGSLRLSCPASGFIIRLYVMGWYRQAPGKERELVAAISSGGRTYYADSVKGRFTISRDNAKNTVYLQMNSLKPEDTAVYYCAAYVRGWGCDDFWGQGSQVTVSS”, the “polyreactivity (PSR sort gate)” value was “high polyreactivity”.

Turning to “QVQLVESGGGLVQAGGSLRLSCAASGITLQYYAMGWYRQAPGKERQLVAGITSGGGTYYADSVKGRFTISRDNAKNTVYLQMNSLKPEDTAVYYCAARPWRSRYYGGLGRRFDYWGQGTQETVSS”, the “polyreactivity (PSR sort gate)” value was “high polyreactivity”.

As for “QVQLVESGGGLVQAGGSLRLSCAASGSTFQYYAMGWYRQAPGKERELVAAISSSGGSTYYADSVKGRFTISRDYAKNTVYFQMNSQKPEDTAVYYCAKRFRRFTYTRDYWGQGTQVTVTS”, the “polyreactivity (PSR sort gate)” value was “high polyreactivity”.

“QVQLVESGGGLVQAGGSLRLSCAASGTYTNAMGWYRQAPGKERELVAAITSSGGSTYYADSVKGRFTISRDNAKNTVYLQMNSLKPEDTAVYYCAKPGVYEVSYTYGYWGQGTQVTVSS”: the “polyreactivity (PSR sort gate)” value was “low polyreactivity”.

Regarding “QVQLVESGGGLVQAGGTLRLSCSASGSIFGIYAMGGYRHAPGKESELVAAITSGGSTYADSVKGRFTISRDNAKNTVYLQMNSLKPVDTAVYFCAAYGRDIGGYDYWGQGSQVTVSS”, the “polyreactivity (PSR sort gate)” value is “low polyreactivity”.

Take “QVQLVESGGGLVQAGGSLRLSCAASGRIIATNAMGWNRQAPGKERELVATITRSAGRTYYADSVKGRFTISRDNAKNTVYLHMNSLKPEDTAVYYCAASYWYTEPGYREYDYWGQGTQVTVSS”: the “polyreactivity (PSR sort gate)” value is reported as “low polyreactivity”.

For “QVQLVESGGGLVQAGGSLRLSSAASGNTIYGYAMGWYRQAPGNERELVASITLSGDSTYYADSVKGRFTISRDNAKNTVYLQMNSLKPEDTAVYYCAGVYTYPLGYYHYTYDYWGQGTQVTVSS”, the “polyreactivity (PSR sort gate)” value is listed as “low polyreactivity”.

As for “QVQLQESGGGLMQAGGNLRLSCAASGYISTHYDMDWYRQAPGKERELVARIDDGAITNYADSVKGRFTISRDNAKKTVYLQMNSLKPEDTAVYYCAVYYGDEYYHDYWGQGTQVTVSS”, the “polyreactivity (PSR sort gate)” value is reported as “low polyreactivity”.

As for “QVQLVESGGGIVQAGGSLRLSCAASGSTIDYNAMGWYRQARGQERELVAAITSGGSTSYADSVKGRFTISRENAKNTVYLQMNSLKPEDTAGYYCAVKRYWLWWYDYWGQGTQVTVSS”, the “polyreactivity (PSR sort gate)” value is “high polyreactivity”.

With “QVHLVESGGVLVQAGGRLRLSCAAYGNIIGFNAMGWYRQAPGTERELVAAINSGGSTYYPDSVKGRFTISRDNAKNSVYLQMNSLKPEDSAVYYCAARVRIRGGGYDDWGQGTQVTVSS”, the “polyreactivity (PSR sort gate)” value was “high polyreactivity”.

For “QVQLVESGGGLVQAGGSLRLSCAASGSIFWSNAMGWYRQAPGKELELVAAITTSDGSTYYADSVKGRFTISRDNAKNTVYLQMNSLKPEDNAVYYCAADASTWYTEEYWGQGTQVTVSS”, the “polyreactivity (PSR sort gate)” value is on record as “low polyreactivity”.

As for “QVQLVESGGGLVQAGGSLRLSCAASGSTFEYNAMGGYRQAPGKERELVASSTNYADSVKGRFTISRDNAKKTVYLQMTSLKPEDTAVYYCAREQGVNRNHDYWGQGTQVTVSS”, the “polyreactivity (PSR sort gate)” value is given as “low polyreactivity”.

On to “QVQLVESGGGLVQAGCSLRLSCAASGRIFGQYAMGWYRQAPGKEREFVAGISTTGGSTYYADSVKGRFTISRDNAKNTVYLQMNSLKPEDTAVYYFAVRINWSRWYHYYTYNYWGQGTQVTVSS”, for which the “polyreactivity (PSR sort gate)” value is “high polyreactivity”.

Turning to “QVQLVESGGGLVQAGGSLRLAVLPPDLPSTLNDMGWYRQAPGKERELVAAITRGGSTNYADSVKGRFTISRDNAKNTVYLEMNSLKPEDTAVYYCAAPYAGWRDGGDYWGQGTQVTVSS”, the “polyreactivity (PSR sort gate)” value is on record as “low polyreactivity”.

Take “QVQLVESGGGLVQAGGSLRLSCAASGSTFFRNAMGWYRQAPGKERELVAAISKSGTSTYYADSVKGRFTISRDNAKNNVYLQMNSLKPEDTAVYYCAKYGFCYPQSYAYYYWGQGTQVTVSS”: the “polyreactivity (PSR sort gate)” value is “high polyreactivity”.

On to “QVQLVESAGGLVQAGGSLRLSCAASGYIFQYYAMGWYRQAPGKERELVAAITSGGSTYYADSVKGRFTISRDNAKNTVYLQMNSLKPEDTAVYYCAAHLLHYRGDYWGQGTQVTVSS”, for which the “polyreactivity (PSR sort gate)” value is given as “high polyreactivity”.

With “QVQLVESGGGLVQAGGSLPLSCAASGSTFSPYDMGWYIQAPGKDRELVAVITGSDGTYYADSVKGRFTITRDNAKNTVYVQMNSLKPEDTAVYYCATDWNFGRWYTLGVEMDYWGQGTQVTVSS”, the “polyreactivity (PSR sort gate)” value is reported as “low polyreactivity”.

In the case of “QVQLVESGGGLVQAGGSLRLSCAASGFTFWRYAMGWSRQAPGKERELVAAISRTGGRTYYADSVKGRFTISRDNAKITVYLQMTSLKPEDTAVYYCAAVKYETYRYNYDYWGQGTQVTVSS”, the “polyreactivity (PSR sort gate)” value was “high polyreactivity”.

As to “QVQLVESGGGLVQAGGSLRLSCAASGRTFSVNAMGWYRQAPGKEREMVAAITSGASTNYADSVKGRFTISRDNAKNTVYLQMNSLKPEDTAVYYCAADATYGHVPAEYDYWGQGTQVTVSS”, the “polyreactivity (PSR sort gate)” value is reported as “low polyreactivity”.

Regarding “QVQLVESGGGLVQAGGSLRVSCAASGFIFHYYAMGWYRQAPGKERELVAAITYSGGSTYYADSVKGRFTISRDNAKNTVYLQMNSMKPVDTAVYYCNADSVLDLYWNMDYWGQVTQVTVSS”, the “polyreactivity (PSR sort gate)” value is “low polyreactivity”.

Turning to “QVQLVESGGGLVQAGGSLRLSCAASGRTFPYYAMGWYRQAPGKERELVAAITWSGGSTYYADSVKGRFTISRDNAKNTVYLQMNSLKPEDTAVYYCAKDYSRWGWNMGYWGQGTQVTVSS”, the “polyreactivity (PSR sort gate)” value was “high polyreactivity”.

On to “QVQLVESGGGIVQAGGSLRLSCAASGSTFFDNAMGWYRQAPGKERDLVAAISLTDGITYDADSVKGRFTISRDNAKNTVYLQMNSLKPEDTAVYYCNAVYDWSLDQVWDYFEYEYWGQGSQVTVSS”, for which the “polyreactivity (PSR sort gate)” value is “high polyreactivity”.

On to “QVQLVESGGGLVQAGGSLRLSCAASGSTFLYVMGWYRQAPGKERELVAAISESGGSTYYADSVKGRFTISRDNAKNTLYLQMNSLKPEDTAVYYCAADLPTGLQYRYYRVDYWGQGTQVTVSS”, for which the “polyreactivity (PSR sort gate)” value was “low polyreactivity”.

“QVQLVETGGGLVQAGGSLRLSCAASGRTFARNAMGWYRQAPGKERELVAAISRRGGNTYYADSVKGRFTISRDNAKNTVYLQMNSLKPEDTAVYYCAVRWPSARIPVKLDYWGQGTQVTVSS”: the “polyreactivity (PSR sort gate)” value is listed as “high polyreactivity”.

For “QVQLVESGGGLVQAGGSLRLSCAASGILLFNAMGWYRQAPGKERELVAPINSGGSTNYADSVKGRFTISRDNAKNTVYLQMKSLKPDDTAVYYCGKDTPFTLRVWAEGGMDYWGEGTQVTVSS”, the “polyreactivity (PSR sort gate)” value is on record as “low polyreactivity”.

For “QVQLQESCGALVQAGGTLRLSCAASGSIFEQLDMGWNRQAPGKELEFVAAIGTGSTTYYADSVKGRFSISRDNAKNTVYLQRNSLKPEDTAVYYCAVTYSVYLPFRYWGQGTQVTVSS”, the “polyreactivity (PSR sort gate)” value was “high polyreactivity”.

As to “QVQLVESGGGLVQAGGSLRLSCAASGSIFVYVMGWYRQAPGKERELVAAISSGGSTDYADSVKGRFTISRDNAQNTVYLQMNSLKPEDTAVYYCAADTDTGYTYYYWGQGTQVTVSS”, the “polyreactivity (PSR sort gate)” value is “low polyreactivity”.

For “QVQLVESGGGLVQAGGRLRLSCAASGRTFYYNGMGWYRQAPGKERELVAAITSGGTTSYADSVKGRFTISRDNAKNTVYLQMNSLKPEDTAVYYCNADYWAVNYDYWGQGTQVTVSS”, the “polyreactivity (PSR sort gate)” value is “low polyreactivity”.

Consider “QVQLVETGGGLVQAGGSLRLSCAASGNMFVTYDMGWYRKAPGKERELVASISWNGGSTNYADSVKGRFTISRDNAKNTVYLQMNSLKPEDTAVYYCAVDYARDKGYPYGYWGQGTQVTVSS”, for which the “polyreactivity (PSR sort gate)” value is recorded as “low polyreactivity”.

Consider “QVQLVESGGGLVQAGGSLRLSCAASGFTFVYYVMGWYRQAPGKERELVAAINAGGGSTYYADSVKGRFTISRDNAKNTVYLQMNSLKPEDTAVYYCNARVRVRLGRNWSSYYYWGQGTQVTVSS”, for which the “polyreactivity (PSR sort gate)” value was “high polyreactivity”.

As to “QVQLVESGGGLVQAGGSLRLSCAASGSTFISYAMGWYRQAPGKERELVAAIRYRDGRTYYADSVKGRFTNSRDNAKNTVYLQMISLKPEDTAVYYCAAKYRGLYSGMYYWGQGTQVTVSS”, the “polyreactivity (PSR sort gate)” value is “high polyreactivity”.

Take “QVQLVESGGGLVQAGGSLRLSCAASGFIFRVYAMGWYRQAPGKERELVAAITRAGNTYYADSVKGRFTISRDNAMNTVYLQMNSLKPEDTAVYYCNKYHYWASPMNYWGQGTQVTVSS”: the “polyreactivity (PSR sort gate)” value is “high polyreactivity”.

Consider “QVQLVESGGGLVQAGGSLRLSCAASGRTFWGYAMGWYRQAPGKERELVAAISSGGDTTYADSVKGRFTISRDNAKNTVYLQMNSLKPEDTAVYYCAADRWIPVYILGADGYDYWGQGTQVTVSS”, for which the “polyreactivity (PSR sort gate)” value is “low polyreactivity”.

On to “QVQLVESGGGLVQAGGSLRLSCAASGGIFARYAMGWYRQAPGKEREFVAAISFSGASTYYADSVKGRFTISRDNAKNTVYLQMNSLKPEDTAVYYCAAYWDAEGRRYTRLDYWGQGTQVTVSS”, for which the “polyreactivity (PSR sort gate)” value is reported as “low polyreactivity”.

Turning to “QVQLVESGGGLVQAGGSLRLSCAASGSIFGRYTMGWYRQAPGKERELVARIRSGGTTYYADSVKGRFTISRDNAKNTVYLQMNSLKPEDTAVYYCAAGRDARDYYSWGQGTQVTVSS”, the “polyreactivity (PSR sort gate)” value was “high polyreactivity”.

With “QVQLVESGGGLVQAGGSLRLSCAASGSIFGGYAMGWYRQAPGKERELVATSYADSVKGRFTISRDIAKNTVYLQMNSLKPEDTAVYYCAADPPLEGVHGYNYWGQGTQVTVSS”, the “polyreactivity (PSR sort gate)” value was “low polyreactivity”.

As for “QVQLVESGGGLVQAGGSLRLSCAATGSIFVGYVMGWYRQAAGKERELVAAISRSGGRTYYADSVKGRFTISRDNAKNTVYLQMNSLKPEDTAVYYCAVRHRFYTAGYDYWGQGTQVTVSS”, the “polyreactivity (PSR sort gate)” value was “low polyreactivity”.
